Values quoted from earlier work in publication PMC9843440.

Target: IκBα (Homo sapiens) (UniProt P25963)
Chain of UniProt P25963 (P25963 whole entry): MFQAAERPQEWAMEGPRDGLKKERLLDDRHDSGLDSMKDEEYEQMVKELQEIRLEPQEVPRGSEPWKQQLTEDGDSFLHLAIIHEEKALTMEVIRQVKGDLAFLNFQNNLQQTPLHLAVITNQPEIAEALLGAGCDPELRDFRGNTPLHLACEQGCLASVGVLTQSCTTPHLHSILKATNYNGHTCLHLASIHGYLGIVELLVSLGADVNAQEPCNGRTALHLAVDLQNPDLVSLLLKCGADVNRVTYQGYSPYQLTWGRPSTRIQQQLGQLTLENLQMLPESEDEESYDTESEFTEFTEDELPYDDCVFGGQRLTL

Kd: 56 nM
Substance: IKKβ (from UniProt O14920)
